# Measured values as given in IntAct's records for PubMed 26188084.
# B1: Serine/threonine-protein kinase PLK4 (Homo sapiens), O00444 (parent)
# chain: MATCIGEKIEDFKVGNLLGKGSFAGVYRAESIHTGLEVAIKMIDKKAMYKAGMVQRVQNEVKIHCQLKHPSILELYNYFEDSNYVYLVLEMCHNGEMNRYLKNRVKPFSENEARHFMHQIITGMLYLHSHGILHRDLTLSNLLLTRNMNIKIADFGLATQLKMPHEKHYTLCGTPNYISPEIATRSAHGLESDVWSLGCMFYTLLIGRPPFDTDTVKNTLNKVVLADYEMPSFLSIEAKDLIHQLLRRNPADRLSLSSVLDHPFMSRNSSTKSKDLGTVEDSIDSGHATISTAITASSSTSISGSLFDKRRLLIGQPLPNKMTVFPKNKSSTDFSSSGDGNSFYTQWGNQETSNSGRGRVIQDAEERPHSRYLRRAYSSDRSGTSNSQSQAKTYTMERCHSAEMLSVSKRSGGGENEERYSPTDNNANIFNFFKEKTSSSSGSFERPDNNQALSNHLCPGKTPFPFADPTPQTETVQQWFGNLQINAHLRKTTEYDSISPNRDFQGHPDLQKDTSKNAWTDTKVKKNSDASDNAHSVKQQNTMKYMTALHSKPEIIQQECVFGSDPLSEQSKTRGMEPPWGYQNRTLRSITSPLVAHRLKPIRQKTKKAVVSILDSEEVCVELVKEYASQEYVKEVLQISSDGNTITIYYPNGGRGFPLADRPPSPTDNISRYSFDNLPEKYWRKYQYASRFVQLVRSKSPKITYFTRYAKCILMENSPGADFEVWFYDGVKIHKTEDFIQVIEKTGKSYTLKSESEVNSLKEEIKMYMDHANEGHRICLALESIISEEERKTRSAPFFPIIIGRKPGSTSSPKALSPPPSVDSNYPTRERASFNRMVMHSAASPTQAPILNPSMVTNEGLGLTTTASGTDISSNSLKDCLPKSAQLLKSVFVKNVGWATQLTSGAVWVQFNDGSQLVVQAGVSSISYTSPNGQTTRYGENEKLPDYIKQKLQCLSSILLMFSNPTPNFH
# partner: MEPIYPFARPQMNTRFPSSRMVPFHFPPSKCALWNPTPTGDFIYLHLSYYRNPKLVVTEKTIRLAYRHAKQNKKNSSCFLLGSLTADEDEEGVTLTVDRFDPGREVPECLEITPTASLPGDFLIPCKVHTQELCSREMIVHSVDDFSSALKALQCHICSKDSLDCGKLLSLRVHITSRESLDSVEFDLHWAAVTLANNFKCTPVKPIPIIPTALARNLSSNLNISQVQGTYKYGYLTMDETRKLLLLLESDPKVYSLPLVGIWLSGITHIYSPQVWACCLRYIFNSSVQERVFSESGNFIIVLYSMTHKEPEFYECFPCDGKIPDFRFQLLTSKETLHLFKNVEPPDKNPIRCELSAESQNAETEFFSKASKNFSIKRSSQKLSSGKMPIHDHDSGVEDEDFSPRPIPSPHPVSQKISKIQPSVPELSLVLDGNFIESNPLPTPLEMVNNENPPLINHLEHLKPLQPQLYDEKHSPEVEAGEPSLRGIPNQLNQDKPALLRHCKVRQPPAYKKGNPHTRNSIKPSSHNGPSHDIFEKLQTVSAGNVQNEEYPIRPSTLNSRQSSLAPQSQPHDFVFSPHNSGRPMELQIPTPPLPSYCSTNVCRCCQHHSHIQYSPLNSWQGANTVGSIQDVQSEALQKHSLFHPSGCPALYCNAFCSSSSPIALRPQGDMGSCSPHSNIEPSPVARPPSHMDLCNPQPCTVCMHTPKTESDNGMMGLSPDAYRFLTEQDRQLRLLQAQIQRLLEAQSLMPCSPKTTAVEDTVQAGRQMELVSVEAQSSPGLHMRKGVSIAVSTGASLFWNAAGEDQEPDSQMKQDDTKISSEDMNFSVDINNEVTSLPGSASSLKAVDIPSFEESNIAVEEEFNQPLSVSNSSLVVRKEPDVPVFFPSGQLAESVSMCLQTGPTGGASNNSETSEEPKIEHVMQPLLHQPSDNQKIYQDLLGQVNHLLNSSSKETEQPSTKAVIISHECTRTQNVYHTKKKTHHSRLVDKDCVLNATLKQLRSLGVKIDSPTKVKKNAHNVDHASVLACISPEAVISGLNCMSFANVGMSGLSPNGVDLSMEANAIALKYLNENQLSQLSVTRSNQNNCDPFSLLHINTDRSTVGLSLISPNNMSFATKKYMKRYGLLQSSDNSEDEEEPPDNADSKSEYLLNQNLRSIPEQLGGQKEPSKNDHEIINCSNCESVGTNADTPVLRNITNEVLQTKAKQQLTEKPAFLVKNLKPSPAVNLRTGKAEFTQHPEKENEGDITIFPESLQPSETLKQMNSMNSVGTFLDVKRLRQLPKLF
# B2: SCL-interrupting locus protein (Homo sapiens), Q15468 (parent)
# chain: B1 partner
# partner: B1 chain
# Variants of: B1
# Conditions: with stil_human STIL
row,Variant,effect of a mutation on the interaction
1,S285A;T289A,with no effect

# Variants of: B2
# Conditions: with plk4_human PLK4, O00444
row,Variant,effect of a mutation on the interaction
1,L733D;I740K;L743D,with no effect
2,L733E;I740E;L743E,with no effect
3,L733D;L736E;I740K;L743D,with no effect
4,L733D;L736E;L743D,with no effect
5,L733D;L743D,decreasing interaction strength
6,L733Y;L743Y,with no effect
7,Q737K;Q739E,decreasing interaction strength
